Values belong to the binder of their own block, whether it stands above or below them. Non-standard residues stand in square brackets, D forms with d. Aib = CC(C)(N)C(=O)O
Molecular target: human glucagon receptor (human, UniProt P47871 26-477)
Assay: cell-based or functional assay

Sequence of human glucagon receptor (P47871 26-477): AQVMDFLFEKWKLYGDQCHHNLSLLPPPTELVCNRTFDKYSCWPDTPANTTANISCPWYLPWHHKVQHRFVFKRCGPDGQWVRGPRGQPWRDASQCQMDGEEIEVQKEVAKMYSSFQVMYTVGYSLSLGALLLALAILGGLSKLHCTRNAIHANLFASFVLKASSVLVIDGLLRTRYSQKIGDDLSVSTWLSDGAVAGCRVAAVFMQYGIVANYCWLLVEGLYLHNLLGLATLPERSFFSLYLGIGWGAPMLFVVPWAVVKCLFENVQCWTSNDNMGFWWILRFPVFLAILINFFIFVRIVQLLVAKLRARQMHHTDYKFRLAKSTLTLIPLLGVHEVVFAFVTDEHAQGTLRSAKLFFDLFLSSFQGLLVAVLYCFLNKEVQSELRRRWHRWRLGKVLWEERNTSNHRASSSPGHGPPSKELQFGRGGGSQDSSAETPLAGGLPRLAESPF

GCG-R EC50 in vitro [nM] (cAMP, AlphaScreen, HEK293 cells expressing human Glucagon-R): 0.11 nM
Binder: H-HSQGTFTSDLSKYLDSARAEDFVKWLEST-OH [Compound 11]

GCG-R EC50 in vitro [nM] (cAMP, AlphaScreen, HEK293 cells expressing human Glucagon-R): 0.15 nM
Binder: H-HSQGTFTSDYSKYLDEARAEDFVKWLEST-OH [Compound 14]

GCG-R EC50 in vitro [nM] (cAMP, AlphaScreen, HEK293 cells expressing human Glucagon-R): 0.03 nM
B1: Compound 15 (peptide)
peptide: H-HSQGTFTSDYSKYLD[Aib]ARAESFVKWLEST-OH
SMILES: CC(C)C[C@H](NC(=O)[C@H](Cc1c[nH]c2ccccc12)NC(=O)[C@H](CCCCN)NC(=O)[C@@H](NC(=O)[C@H](Cc1ccccc1)NC(=O)[C@H](CO)NC(=O)[C@H](CCC(=O)O)NC(=O)[C@H](C)NC(=O)[C@H](CCCNC(=N)N)NC(=O)[C@H](C)NC(=O)C(C)(C)NC(=O)[C@H](CC(=O)O)NC(=O)[C@H](CC(C)C)NC(=O)[C@H](Cc1ccc(O)cc1)NC(=O)[C@H](CCCCN)NC(=O)[C@H](CO)NC(=O)[C@H](Cc1ccc(O)cc1)NC(=O)[C@H](CC(=O)O)NC(=O)[C@H](CO)NC(=O)[C@@H](NC(=O)[C@H](Cc1ccccc1)NC(=O)[C@@H](NC(=O)CNC(=O)[C@H](CCC(N)=O)NC(=O)[C@H](CO)NC(=O)[C@@H](N)Cc1c[nH]cn1)[C@@H](C)O)[C@@H](C)O)C(C)C)C(=O)N[C@@H](CCC(=O)O)C(=O)N[C@@H](CO)C(=O)N[C@H](C(=O)O)[C@@H](C)O

GCG-R EC50 in vitro [nM] (cAMP, AlphaScreen, HEK293 cells expressing human Glucagon-R): 0.32 nM
Binder: H-HSQGTFTSDYSKYLDSARAEDFVSWLEST-OH [Compound 10]

GCG-R EC50 in vitro [nM] (cAMP, AlphaScreen, HEK293 cells expressing human Glucagon-R): 0.029 nM
Binder: H-HSQGTFTSDYSKYLDLARAEDFVKWLEST-OH [Compound 17]

GCG-R EC50 in vitro [nM] (cAMP, AlphaScreen, HEK293 cells expressing human Glucagon-R): 0.07 nM
Binder: H-HSQGTFTSDYSKYLDSARAEDFVKWLES-OH [Compound 13]

GCG-R EC50 in vitro [nM] (cAMP, AlphaScreen, HEK293 cells expressing human Glucagon-R): 0.16 nM
B2: Compound 23 (peptide)
peptide: H-HSQGTFTSDVSKYLD[Aib]ARAESFVKWLEST-OH
SMILES: CC(C)C[C@H](NC(=O)[C@H](Cc1c[nH]c2ccccc12)NC(=O)[C@H](CCCCN)NC(=O)[C@@H](NC(=O)[C@H](Cc1ccccc1)NC(=O)[C@H](CO)NC(=O)[C@H](CCC(=O)O)NC(=O)[C@H](C)NC(=O)[C@H](CCCNC(=N)N)NC(=O)[C@H](C)NC(=O)C(C)(C)NC(=O)[C@H](CC(=O)O)NC(=O)[C@H](CC(C)C)NC(=O)[C@H](Cc1ccc(O)cc1)NC(=O)[C@H](CCCCN)NC(=O)[C@H](CO)NC(=O)[C@@H](NC(=O)[C@H](CC(=O)O)NC(=O)[C@H](CO)NC(=O)[C@@H](NC(=O)[C@H](Cc1ccccc1)NC(=O)[C@@H](NC(=O)CNC(=O)[C@H](CCC(N)=O)NC(=O)[C@H](CO)NC(=O)[C@@H](N)Cc1c[nH]cn1)[C@@H](C)O)[C@@H](C)O)C(C)C)C(C)C)C(=O)N[C@@H](CCC(=O)O)C(=O)N[C@@H](CO)C(=O)N[C@H](C(=O)O)[C@@H](C)O

GCG-R EC50 in vitro [nM] (cAMP, AlphaScreen, HEK293 cells expressing human Glucagon-R): 0.026 nM
Binder: H-HSQGTFTSDYSKYLDKRRAEDFVSWLEST-OH [Compound 18]

GCG-R EC50 in vitro [nM] (cAMP, AlphaScreen, HEK293 cells expressing human Glucagon-R): 0.064 nM
Binder: H-HSQGTFTSDYSKYLDSARAESFVKWLEST-OH [Compound 1]

GCG-R EC50 in vitro [nM] (cAMP, AlphaScreen, HEK293 cells expressing human Glucagon-R): 0.39 nM
Binder: H-HSQGTFTSDYSKYLESARAESFVKWLEST-OH [Compound 16]

GCG-R EC50 in vitro [nM] (cAMP, AlphaScreen, HEK293 cells expressing human Glucagon-R): 0.24 nM
B3: Compound 20 (peptide)
peptide: H-HAQGTFTSDYSKYLD[Aib]ARAESFVKWLEST-OH
SMILES: CC(C)C[C@H](NC(=O)[C@H](Cc1c[nH]c2ccccc12)NC(=O)[C@H](CCCCN)NC(=O)[C@@H](NC(=O)[C@H](Cc1ccccc1)NC(=O)[C@H](CO)NC(=O)[C@H](CCC(=O)O)NC(=O)[C@H](C)NC(=O)[C@H](CCCNC(=N)N)NC(=O)[C@H](C)NC(=O)C(C)(C)NC(=O)[C@H](CC(=O)O)NC(=O)[C@H](CC(C)C)NC(=O)[C@H](Cc1ccc(O)cc1)NC(=O)[C@H](CCCCN)NC(=O)[C@H](CO)NC(=O)[C@H](Cc1ccc(O)cc1)NC(=O)[C@H](CC(=O)O)NC(=O)[C@H](CO)NC(=O)[C@@H](NC(=O)[C@H](Cc1ccccc1)NC(=O)[C@@H](NC(=O)CNC(=O)[C@H](CCC(N)=O)NC(=O)[C@H](C)NC(=O)[C@@H](N)Cc1c[nH]cn1)[C@@H](C)O)[C@@H](C)O)C(C)C)C(=O)N[C@@H](CCC(=O)O)C(=O)N[C@@H](CO)C(=O)N[C@H](C(=O)O)[C@@H](C)O

GCG-R EC50 in vitro [nM] (cAMP, AlphaScreen, HEK293 cells expressing human Glucagon-R): 0.03 nM
Binder: H-HSQGTFTSDYSKYLDSARAEEFVKWLEST-OH [Compound 9]

GCG-R EC50 in vitro [nM] (cAMP, AlphaScreen, HEK293 cells expressing human Glucagon-R): 0.054 nM
Binder: H-HSQGTFTSDYSKYLDVARAESFVKWLEST-OH [Compound 19]

GCG-R EC50 in vitro [nM] (cAMP, AlphaScreen, HEK293 cells expressing human Glucagon-R): 0.024 nM
B4: Compound 22 (peptide)
peptide: H-HSQ[dA]TFTSDYSKYLD[Aib]ARAESFVKWLEST-OH
SMILES: CC(C)C[C@H](NC(=O)[C@H](Cc1c[nH]c2ccccc12)NC(=O)[C@H](CCCCN)NC(=O)[C@@H](NC(=O)[C@H](Cc1ccccc1)NC(=O)[C@H](CO)NC(=O)[C@H](CCC(=O)O)NC(=O)[C@H](C)NC(=O)[C@H](CCCNC(=N)N)NC(=O)[C@H](C)NC(=O)C(C)(C)NC(=O)[C@H](CC(=O)O)NC(=O)[C@H](CC(C)C)NC(=O)[C@H](Cc1ccc(O)cc1)NC(=O)[C@H](CCCCN)NC(=O)[C@H](CO)NC(=O)[C@H](Cc1ccc(O)cc1)NC(=O)[C@H](CC(=O)O)NC(=O)[C@H](CO)NC(=O)[C@@H](NC(=O)[C@H](Cc1ccccc1)NC(=O)[C@@H](NC(=O)[C@@H](C)NC(=O)[C@H](CCC(N)=O)NC(=O)[C@H](CO)NC(=O)[C@@H](N)Cc1c[nH]cn1)[C@@H](C)O)[C@@H](C)O)C(C)C)C(=O)N[C@@H](CCC(=O)O)C(=O)N[C@@H](CO)C(=O)N[C@H](C(=O)O)[C@@H](C)O

GCG-R EC50 in vitro [nM] (cAMP, AlphaScreen, HEK293 cells expressing human Glucagon-R): 0.03 nM
B5: Compound 12 (peptide)
peptide: H-HSQGTFTSDYSKYLD[Aib]ARAEDFVKWLEST-OH
SMILES: CC(C)C[C@H](NC(=O)[C@H](Cc1c[nH]c2ccccc12)NC(=O)[C@H](CCCCN)NC(=O)[C@@H](NC(=O)[C@H](Cc1ccccc1)NC(=O)[C@H](CC(=O)O)NC(=O)[C@H](CCC(=O)O)NC(=O)[C@H](C)NC(=O)[C@H](CCCNC(=N)N)NC(=O)[C@H](C)NC(=O)C(C)(C)NC(=O)[C@H](CC(=O)O)NC(=O)[C@H](CC(C)C)NC(=O)[C@H](Cc1ccc(O)cc1)NC(=O)[C@H](CCCCN)NC(=O)[C@H](CO)NC(=O)[C@H](Cc1ccc(O)cc1)NC(=O)[C@H](CC(=O)O)NC(=O)[C@H](CO)NC(=O)[C@@H](NC(=O)[C@H](Cc1ccccc1)NC(=O)[C@@H](NC(=O)CNC(=O)[C@H](CCC(N)=O)NC(=O)[C@H](CO)NC(=O)[C@@H](N)Cc1c[nH]cn1)[C@@H](C)O)[C@@H](C)O)C(C)C)C(=O)N[C@@H](CCC(=O)O)C(=O)N[C@@H](CO)C(=O)N[C@H](C(=O)O)[C@@H](C)O
